Patent US11278600B2, “Human alpha-galactosidase variants” (Codexis, Inc., priority 2014, dated 2022)

Tests used:
Type in all cases: biochemical
[1] = HTP-analysis of supernatants pretreated with acid (MUGal hydrolysis); settings: challenge at pH 4.0; activity of the variant/activity of Rd3BB (SEQ ID NO: 13); yeast culture supernatant
How it was run: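 MUGal hydrolysis was tracked by fluorescence (Ex 355 nm, Em 448 nm) after a 30-180 min reaction at 37° C. in pH 4.8 McIlvaine/citrate buffer, stopped with 1 M sodium carbonate. Beforehand, yeast (INVSc1) culture supernatants carrying GLA variants were held 1-3 h at 37° C. in acidic McIlvaine buffer, pH 3.3-4.3.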

[2] = HTP-analysis of supernatants pretreated with base (MUGal hydrolysis); settings: challenge at pH 8.2; activity of the variant/activity of Rd3BB (SEQ ID NO: 13); yeast culture supernatant
How it was run: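 GLA variants were secreted by transformed INVSc1 yeast grown 66-84 h at 30° C. Supernatants were exposed to neutral-to-basic buffers (pH 7.0-9.7) at 37° C for 1-18 h, then assayed with MUGal in acidic citrate/McIlvaine buffer, with fluorescence read after quenching.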

[3] = HTP-analysis of yeast culture supernatants, no challenge (MUGal hydrolysis); settings: activity of the variant/activity of Rd3BB (SEQ ID NO: 13), yeast culture supernatant
How it was run: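 Activity read as 4-methylumbelliferyl α-D-galactopyranoside hydrolysis: fluorescence (355/448 nm) after sodium carbonate stop, following 30-180 min at 37° C with 2 mM MUGal stock at pH 4.6–4.8. Enzyme source is unchallenged culture supernatant of INVSc1 yeast expressing GLA variants, grown 66-84 h at 30° C.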

[4] = HTP-analysis of supernatants pretreated with bovine serum (MUGal hydrolysis); settings: activity of the variant/activity of Rd3BB (SEQ ID NO: 13), yeast culture supernatant
How it was run: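 Yeast INVSc1 culture supernatants containing secreted GLA variants were mixed with bovine serum (20:80) and held 1 h at 37° C. Serum-treated samples then reacted with MUGal (4 mM stock) in citrate/McIlvaine buffer (pH 4.3/4.8) for 180 min at 37° C., were quenched with sodium carbonate, and read by fluorescence (Ex 355, Em 448 nm).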

Molecule | Relative Activity of GLA Variants After Challenge at pH 4.0 [1] | Relative Activity of GLA Variants After Challenge at pH 8.2 [2] | Relative Activity of GLA Variants After No Challenge (NC) [3] | Relative Activity of GLA Variants After Challenge with Serum [4]
330 (protein, Synthetic Polypeptide sequence of Variant No. 330 of mature Human GLA) LDNGLARTPTMGWLHWERFMCNLDCQEEPDSCISEKLFMEMAERMVSEGWKDAGYEYLCIDDCWMAPQRDSEGRLQADPQRFPHGIRQLANYVHSKGLKLGIYADVGNKTCAGFPGSFGYYDIDAQTFADWGVDLLKFDGCYCDSLENLADGYKHMSLALNRTGRSIVYSCEWPLYMWPFQKPNYTEIRQYCNHWRNFADIDDSWASVKSILDWTSFNQEKIVDVAGPGGWNDPDMLVIGNFGLSWNQQVTQMALWAIMAAPLFMSNDLRHISPQAKALLQDKDVIAINQDPLGKQGYQLRQGDNFEVWERPLSGLAWAVAIINRQEIGGPRSYTIAVASLGDGVACNPACFITQLLPVKRKLGFYNWTSRLKSHINPTGTVLLQLENTMQMSLKDLL | ++ (++ = >1.5 to 2.5 relative activity over Rd3BB (SEQ ID NO: 13)) | + (+ = 0.5 to 1.5 relative activity over Rd3BB (SEQ ID NO: 13)) | ++ (++ = >1.5 to 2.5 relative activity over Rd3BB (SEQ ID NO: 13)) | + (+ = 0.5 to 1.5 relative activity over Rd3BB (SEQ ID NO: 13))
336 (protein, Synthetic Polypeptide sequence of Variant No. 336 of mature Human GLA) LDNGLARTPTMGWLHWERFMCNLDCQEEPDSCISEKLFMEMAERMVSEGWKDAGYEYLCIDDCWMAPQRDSEGRLQADPQRFPHGIRQLANYVHSKGLKLGIYADVGNKTCAGFPGSFGYYDIDAQTFADWGVDLLKFDGCYCDSLENLADGYKHMSLALNRTGRSIVYSCEWPLYMWPFQKPNYTEIRQYCNHWRNFADIDDSWASIKSILDWTSFNQERIVDVAGPGGWNDPDMLVIGNFGLSWDQQVTQMALWAIMAAPLFMSNDLRHISPQAKALLQDKDVIAINQDPLGKQGYQLRKGDNFEVWERPLSGLAWAVAIINRQEIGGPRSYTIAVASLGKGVACNPGCFITQLLPVKRKLGFYNWSSRLKSHINPTGTVLLQLENTMQMSLKDLL | + (+ = 0.5 to 1.5 relative activity over Rd3BB (SEQ ID NO: 13)) | + (+ = 0.5 to 1.5 relative activity over Rd3BB (SEQ ID NO: 13)) | + (+ = 0.5 to 1.5 relative activity over Rd3BB (SEQ ID NO: 13)) | − (− = <0.5 relative activity to Rd3BB (SEQ ID NO: 13))
333 (protein, Synthetic Polypeptide sequence of Variant No. 333 of mature Human GLA) LDNGLARTPTMGWLHWERFMCNLDCQEEPDSCISEKLFMEMAERMVSEGWKDAGYEYLCIDDCWMAPQRDSEGRLQADPQRFPHGIRQLANYVHSKGLKLGIYADVGNKTCAGFPGSFGYYDIDAQTFADWGVDLLKFDGCYCDSLENLADGYKHMSLALNRTGRSIVYSCEWPLYMWPFQKPNYTEIRQYCNHWRNFADIDDSWASIKSILDWTSFNQERIVDVAGPGGWNDPDMLVIGNFGLSWNQQVTQMALWAIMAAPLFMSNDLRHISPQAKALLQDKDVIAINQDPLGKQGYQLRQGDNFEVWERPLSGDAWAVAIINRQEIGGPRSYTIPVASLGKGVACNPGCFITQLLPVKRKLGFYNWSSRLKSHINPTGTVLLQLENTMQMSLKDLL | ++ (++ = >1.5 to 2.5 relative activity over Rd3BB (SEQ ID NO: 13)) | ++ (++ = >1.5 to 2.5 relative activity over Rd3BB (SEQ ID NO: 13)) | ++ (++ = >1.5 to 2.5 relative activity over Rd3BB (SEQ ID NO: 13)) | + (+ = 0.5 to 1.5 relative activity over Rd3BB (SEQ ID NO: 13))
332 (protein, Synthetic Polypeptide sequence of Variant No. 332 of mature Human GLA) LDNGLARTPTMGWLHWERFMCNLDCQEEPDSCISEKLFMEMAERMVSEGWKDAGYEYLCIDDCWMAPQRDSEGRLQADPQRFPHGIRQLANYVHSKGLKLGIYADVGNKTCAGFPGSFGYYDIDAQTFADWGVDLLKFDGCYCDSLENLADGYKHMSLALNRTGRSIVYSCEWPLYMWPFQKPNYTEIRQYCNHWRNFADIDDSWASVKSILDWTSFNQETIVDVAGPGGWNDPDMLVIGNFGLSWNQQVTQMALWAIMAAPLFMSNDLRHISPQAKALLQDKDVIAINQDPLGKQGYQLRKGDNFEVWERPLSGLAWAVAIINRQEIGGPRSYTIAVASLGGGVACNPACFITQLLPVKRKLGLYNWTSRLKSHVNPTGTVLLQLENTMQMSLKDLL | + (+ = 0.5 to 1.5 relative activity over Rd3BB (SEQ ID NO: 13)) | + (+ = 0.5 to 1.5 relative activity over Rd3BB (SEQ ID NO: 13)) | + (+ = 0.5 to 1.5 relative activity over Rd3BB (SEQ ID NO: 13)) | + (+ = 0.5 to 1.5 relative activity over Rd3BB (SEQ ID NO: 13))
335 (protein, Synthetic Polypeptide sequence of Variant No. 335 of mature Human GLA) LDNGLARTPTMGWLHWERFMCNLDCQEEPDSCISEKLFMEMAERMVSEGWKDAGYEYLCIDDCWMAPQRDSEGRLQADPQRFPHGIRQLANYVHSKGLKLGIYADVGNKTCAGFPGSFGYYDIDAQTFADWGVDLLKFDGCYCDSLENLADGYKHMSLALNRTGRSIVYSCEWPLYMWPFQKPNYTEIRQYCNHWRNFADIDDSWASIKSILDWTSFNQERIVDVAGPGGWNDPDMLVIGNFGLSWDQQVTQMALWAIMAAPLFMSNDLRHISPQAKALLQDKDVIAINQDPLGKQGYQLRQGDNFEVWERPLSGDAWAVAIINRQEIGGPRSYTIAVASLGGGVACNPGCFITQLLPVKRQLGFYNWSSRLKSHINPTGTVLLQLENTMQMSLKDLL | +++ (+++ = >2.5 relative activity over Rd3BB (SEQ ID NO: 13)) | +++ (+++ = >2.5 relative activity over Rd3BB (SEQ ID NO: 13)) | ++ (++ = >1.5 to 2.5 relative activity over Rd3BB (SEQ ID NO: 13)) | +++ (+++ = >2.5 relative activity over Rd3BB (SEQ ID NO: 13))
331 (protein, Synthetic Polypeptide sequence of Variant No. 331 of mature Human GLA) LDNGLARTPTMGWLHWERFMCNLDCQEEPDSCISEKLFMEMAERMVSEGWKDAGYEYLCIDDCWMAPQRDSEGRLQADPQRFPHGIRQLANYVHSKGLKLGIYADVGNKTCAGFPGSFGYYDIDAQTFADWGVDLLKFDGCYCDSLENLADGYKHMSLALNRTGRSIVYSCEWPLYMWPFQKPNYTEIRQYCNHWRNFADIDDSWASVKSILDWTSFNQEKIVDVAGPGGWNDPDMLVIGNFGLSWDQQVTQMALWAIMAAPLFMSNDLRHISPQAKALLQDKDVIAINQDPLGKQGYQLRQGDNFEVWERPLSGLAWAVAIINRQEIGGPRSYTIAVASLGDGVACNPACFITQLLPVKRKLGFYNWTSRLKSHVNPTGTVLLQLENTMQMSLKDLL | ++ (++ = >1.5 to 2.5 relative activity over Rd3BB (SEQ ID NO: 13)) | ++ (++ = >1.5 to 2.5 relative activity over Rd3BB (SEQ ID NO: 13)) | + (+ = 0.5 to 1.5 relative activity over Rd3BB (SEQ ID NO: 13)) | + (+ = 0.5 to 1.5 relative activity over Rd3BB (SEQ ID NO: 13))
334 (protein, Synthetic Polypeptide sequence of Variant No. 334 of mature Human GLA) LDNGLARTPTMGWLHWERFMCNLDCQEEPDSCISEKLFMEMAERMVSEGWKDAGYEYLCIDDCWMAPQRDSEGRLQADPQRFPHGIRQLANYVHSKGLKLGIYADVGNKTCAGFPGSFGYYDIDAQTFADWGVDLLKFDGCYCDSLENLADGYKHMSLALNRTGRSIVYSCEWPLYMWPFQKPNYTEIRQYCNHWRNFADIDDSWASIKSILDWTSFNQERIVDVAGPGGWNDPDMLVIGNFGLSWDQQVTQMALWAIMAAPLFMSNDLRHISPQAKALLQDKDVIAINQDPLGKQGYQLRQGDNFEVWERPLSGDAWAVAIINRQEIGGPRSYTIAVASLGKGVACNPGCFITQLLPVKRQLGFYNWSSRLKSHINPTGTVLLQLENTMQMSLKDLL | ++ (++ = >1.5 to 2.5 relative activity over Rd3BB (SEQ ID NO: 13)) | +++ (+++ = >2.5 relative activity over Rd3BB (SEQ ID NO: 13)) | + (+ = 0.5 to 1.5 relative activity over Rd3BB (SEQ ID NO: 13)) | ++ (++ = >1.5 to 2.5 relative activity over Rd3BB (SEQ ID NO: 13))
